Source: patent publication US20210292422A1 (SURROZEN, published 2021)
Each block holds one binder with its values, some of them ahead of it.

Key:
LRP6E1E2 = target: T1, LRP6E1E2 (UniProt O75581 20-630); assay: BLI (Octet), FIG. 12E
T1 construct: domain: E1E2; also called LRP6 E1E2 domains
T1 sequence (looked up): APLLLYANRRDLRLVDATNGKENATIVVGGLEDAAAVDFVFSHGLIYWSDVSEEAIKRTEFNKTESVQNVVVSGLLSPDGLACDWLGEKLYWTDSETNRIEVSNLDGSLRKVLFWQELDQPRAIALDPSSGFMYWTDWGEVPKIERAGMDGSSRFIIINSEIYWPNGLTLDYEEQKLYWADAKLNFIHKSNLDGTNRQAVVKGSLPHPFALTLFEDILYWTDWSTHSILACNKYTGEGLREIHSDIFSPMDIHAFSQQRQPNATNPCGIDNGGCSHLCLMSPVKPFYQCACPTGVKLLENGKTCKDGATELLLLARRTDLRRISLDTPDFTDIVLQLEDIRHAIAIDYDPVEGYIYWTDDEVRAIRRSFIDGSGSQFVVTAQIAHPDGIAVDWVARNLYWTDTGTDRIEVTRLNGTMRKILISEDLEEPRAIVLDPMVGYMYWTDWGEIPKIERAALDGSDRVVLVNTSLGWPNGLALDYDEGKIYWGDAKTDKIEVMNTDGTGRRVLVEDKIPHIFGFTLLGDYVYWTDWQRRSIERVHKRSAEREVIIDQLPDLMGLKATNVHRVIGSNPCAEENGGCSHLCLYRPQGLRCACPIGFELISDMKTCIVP

LRP6E3E4 [1] = target: T2, LRP6E3E4 (UniProt O75581 631-1246); assay: BLI (Octet), FIG. 12E
T2 construct: domain: E3E4
T2 sequence (looked up): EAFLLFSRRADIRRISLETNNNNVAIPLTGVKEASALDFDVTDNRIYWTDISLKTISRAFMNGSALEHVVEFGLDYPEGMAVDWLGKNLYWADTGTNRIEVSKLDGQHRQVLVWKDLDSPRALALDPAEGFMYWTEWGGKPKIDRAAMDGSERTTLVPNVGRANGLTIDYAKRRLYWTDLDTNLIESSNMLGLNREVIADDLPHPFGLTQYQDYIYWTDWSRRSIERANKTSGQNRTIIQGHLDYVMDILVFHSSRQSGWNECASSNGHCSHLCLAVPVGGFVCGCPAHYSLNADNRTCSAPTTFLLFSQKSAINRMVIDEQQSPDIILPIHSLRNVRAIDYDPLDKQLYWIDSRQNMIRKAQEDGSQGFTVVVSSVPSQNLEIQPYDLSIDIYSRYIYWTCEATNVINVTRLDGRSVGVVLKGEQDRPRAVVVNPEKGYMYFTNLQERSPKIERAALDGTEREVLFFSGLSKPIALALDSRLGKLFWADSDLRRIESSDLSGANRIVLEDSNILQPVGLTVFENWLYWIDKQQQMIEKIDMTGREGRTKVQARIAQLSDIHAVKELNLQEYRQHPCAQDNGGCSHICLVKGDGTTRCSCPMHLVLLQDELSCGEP

FZD8 CRD = target: T3, FZD8 CRD (UniProt Q9H461 30-151); assay: BLI (Octet), sequential: FZD8 CRD on sensor, tandem scFv, then LRP6 E3E4
T3 construct: domain: CRD
T3 sequence (looked up): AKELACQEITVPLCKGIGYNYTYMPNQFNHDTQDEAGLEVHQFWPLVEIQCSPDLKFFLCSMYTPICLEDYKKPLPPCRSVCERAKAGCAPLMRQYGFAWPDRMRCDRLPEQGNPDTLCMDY

LRP6E3E4 [2] = target: T2, LRP6E3E4; assay: as above

binding result (LRP6E1E2): binds
B1: αGFP:5:L1:Fc (bispecific antibody)
chain: QVQLVESGGGLVQPGGSLRLSCAASGFTFSRYGMHWVRQAPGKGLEWVSGISSIGSNTYYADSVKGRFTISRDNSKNTLYLQMNSLRAEDTAVYYCARWYKTYIDVWGQGTLVTVSSGGGGSGGGGSGGGGSDIELTQPPSVSVAPGQTARISCSGDNLGKKYVYWYQQKPGQAPVLVIYGDDERPSGIPERFSGSNSGNTATLTISGTQAEDEADYYCASYDSSHILIVFGGGTKLTVLGSGSGDVKLVESGGGLVKLGGSLRLSCAASGFSFSTSYMSWVRQTPEKRLELVAAINLNGGSTYYSDTVKGRFTISRDNAKNTLYLQMSSLKSEDTAFYYCASELAGYGTPFAYWGQGTLVTVSAGSAASGSSGGSSSGADIVLTQSPATLSVTPGDSVSLSCKASQSISYNLHWYQQKSHESPRLLIKYTSQSISGIPSRFSGSGSGTDFTLTINNVETEDFGMYFCQQSNSWPLTFGAGTKLEVKGSGSGDKTHTCPPCPAPEAAGGPSVFLFPPKPKDTLMISRTPEVTCVVVDVSHEDPEVKFNWYVDGVEVHNAKTKPREEQYNSTYRVVSVLTVLHQDWLNGKEYKCKVSNKALGAPIEKTISKAKGQPREPQVYTLPPSREEMTKNQVSLTCLVKGFYPSDIAVEWESNGQPENNYKTTPPVLDSDGSFFLYSKLTVDKSRWQQGNVFSCSVMHEALHNHYTQKSLSLSPGK
notes: 0FZD:2LRP control

binding result (LRP6E1E2): binds
B2: L1:5:αGFP:Fc (bispecific antibody)
chain: DVKLVESGGGLVKLGGSLRLSCAASGFSFSTSYMSWVRQTPEKRLELVAAINLNGGSTYYSDTVKGRFTISRDNAKNTLYLQMSSLKSEDTAFYYCASELAGYGTPFAYWGQGTLVTVSAGSAASGSSGGSSSGADIVLTQSPATLSVTPGDSVSLSCKASQSISYNLHWYQQKSHESPRLLIKYTSQSISGIPSRFSGSGSGTDFTLTINNVETEDFGMYFCQQSNSWPLTFGAGTKLEVKGSGSGQVQLVESGGGLVQPGGSLRLSCAASGFTFSRYGMHWVRQAPGKGLEWVSGISSIGSNTYYADSVKGRFTISRDNSKNTLYLQMNSLRAEDTAVYYCARWYKTYIDVWGQGTLVTVSSGGGGSGGGGSGGGGSDIELTQPPSVSVAPGQTARISCSGDNLGKKYVYWYQQKPGQAPVLVIYGDDERPSGIPERFSGSNSGNTATLTISGTQAEDEADYYCASYDSSHILIVFGGGTKLTVLGSGSGDKTHTCPPCPAPEAAGGPSVFLFPPKPKDTLMISRTPEVTCVVVDVSHEDPEVKFNWYVDGVEVHNAKTKPREEQYNSTYRVVSVLTVLHQDWLNGKEYKCKVSNKALGAPIEKTISKAKGQPREPQVYTLPPSREEMTKNQVSLTCLVKGFYPSDIAVEWESNGQPENNYKTTPPVLDSDGSFFLYSKLTVDKSRWQQGNVFSCSVMHEALHNHYTQKSLSLSPGK
notes: 0FZD:2LRP control

binding result (LRP6E3E4 [1]): binds
B3: L2:5:αGFP:Fc (bispecific antibody)
chain: EVQLVESGGGLVQPGGSLRLSCAASGFTFTSYYISWVRQAPGKGLEWVAEISPYSGSTYYADSVKGRFTISADTSKNTAYLQMNSLRAEDTAVYYCALRARPPIRLHPRGSVMDYWGQGTLVTVSSGSAASGSSGGSSSGADIQMTQSPSSLSASVGDRVTITCRASQDVSTAVAWYQQKPGKAPKLLIYSASFLYSGVPSRFSGSGSGTDFTLTISSLQPEDFATYYCQQSYTTPPTFGQGTKVEIKGSGSGQVQLVESGGGLVQPGGSLRLSCAASGFTFSRYGMHWVRQAPGKGLEWVSGISSIGSNTYYADSVKGRFTISRDNSKNTLYLQMNSLRAEDTAVYYCARWYKTYIDVWGQGTLVTVSSGGGGSGGGGSGGGGSDIELTQPPSVSVAPGQTARISCSGDNLGKKYVYWYQQKPGQAPVLVIYGDDERPSGIPERFSGSNSGNTATLTISGTQAEDEADYYCASYDSSHILIVFGGGTKLTVLGSGSGDKTHTCPPCPAPEAAGGPSVFLFPPKPKDTLMISRTPEVTCVVVDVSHEDPEVKFNWYVDGVEVHNAKTKPREEQYNSTYRVVSVLTVLHQDWLNGKEYKCKVSNKALGAPIEKTISKAKGQPREPQVYTLPPSREEMTKNQVSLTCLVKGFYPSDIAVEWESNGQPENNYKTTPPVLDSDGSFFLYSKLTVDKSRWQQGNVFSCSVMHEALHNHYTQKSLSLSPGK
notes: 0FZD:2LRP control

binding result (FZD8 CRD): binds
binding result (LRP6E3E4 [2]): binds
B4: L2:5:F3_His (bispecific antibody)
chain: EVQLVESGGGLVQPGGSLRLSCAASGFTFTSYYISWVRQAPGKGLEWVAEISPYSGSTYYADSVKGRFTISADTSKNTAYLQMNSLRAEDTAVYYCALRARPPIRLHPRGSVMDYWGQGTLVTVSSGSAASGSSGGSSSGADIQMTQSPSSLSASVGDRVTITCRASQDVSTAVAWYQQKPGKAPKLLIYSASFLYSGVPSRFSGSGSGTDFTLTISSLQPEDFATYYCQQSYTTPPTFGQGTKVEIKGSGSGEVQLVESGGGLVQPGGSLRLSCAASGFNISYSYIHWVRQAPGKGLEWVASIYSSSGSTSYADSVKGRFTISADTSKNTAYLQMNSLRAEDTAVYYCARGAIDYWGQGTLVTVSSGGGGSGGGGSGGGGSDIQMTQSPSSLSASVGDRVTITCRASQSVSSAVAWYQQKPGKAPKLLIYSASSLYSGVPSRFSGSRSGTDFTLTISSLQPEDFATYYCQQWYSSGHVLITFGQGTKVEIKGSGSGHHHHHH
notes: 1:1 tandem scFv

binding result (LRP6E3E4 [1]): binds
B5: αGFP:5:L2:Fc (bispecific antibody)
chain: QVQLVESGGGLVQPGGSLRLSCAASGFTFSRYGMHWVRQAPGKGLEWVSGISSIGSNTYYADSVKGRFTISRDNSKNTLYLQMNSLRAEDTAVYYCARWYKTYIDVWGQGTLVTVSSGGGGSGGGGSGGGGSDIELTQPPSVSVAPGQTARISCSGDNLGKKYVYWYQQKPGQAPVLVIYGDDERPSGIPERFSGSNSGNTATLTISGTQAEDEADYYCASYDSSHILIVFGGGTKLTVLGSGSGEVQLVESGGGLVQPGGSLRLSCAASGFTFTSYYISWVRQAPGKGLEWVAEISPYSGSTYYADSVKGRFTISADTSKNTAYLQMNSLRAEDTAVYYCALRARPPIRLHPRGSVMDYWGQGTLVTVSSGSAASGSSGGSSSGADIQMTQSPSSLSASVGDRVTITCRASQDVSTAVAWYQQKPGKAPKLLIYSASFLYSGVPSRFSGSGSGTDFTLTISSLQPEDFATYYCQQSYTTPPTFGQGTKVEIKGSGSGDKTHTCPPCPAPEAAGGPSVFLFPPKPKDTLMISRTPEVTCVVVDVSHEDPEVKFNWYVDGVEVHNAKTKPREEQYNSTYRVVSVLTVLHQDWLNGKEYKCKVSNKALGAPIEKTISKAKGQPREPQVYTLPPSREEMTKNQVSLTCLVKGFYPSDIAVEWESNGQPENNYKTTPPVLDSDGSFFLYSKLTVDKSRWQQGNVFSCSVMHEALHNHYTQKSLSLSPGK
notes: 0FZD:2LRP control

binding result (FZD8 CRD): binds
binding result (LRP6E3E4 [2]): binds
B6: F3:5:L2_His (bispecific antibody)
chain: EVQLVESGGGLVQPGGSLRLSCAASGFNISYSYIHWVRQAPGKGLEWVASIYSSSGSTSYADSVKGRFTISADTSKNTAYLQMNSLRAEDTAVYYCARGAIDYWGQGTLVTVSSGGGGSGGGGSGGGGSDIQMTQSPSSLSASVGDRVTITCRASQSVSSAVAWYQQKPGKAPKLLIYSASSLYSGVPSRFSGSRSGTDFTLTISSLQPEDFATYYCQQWYSSGHVLITFGQGTKVEIKGSGSGEVQLVESGGGLVQPGGSLRLSCAASGFTFTSYYISWVRQAPGKGLEWVAEISPYSGSTYYADSVKGRFTISADTSKNTAYLQMNSLRAEDTAVYYCALRARPPIRLHPRGSVMDYWGQGTLVTVSSGSAASGSSGGSSSGADIQMTQSPSSLSASVGDRVTITCRASQDVSTAVAWYQQKPGKAPKLLIYSASFLYSGVPSRFSGSGSGTDFTLTISSLQPEDFATYYCQQSYTTPPTFGQGTKVEIKGSGSGHHHHHH
notes: 1:1 tandem scFv
